Assay results reported in PMC6981144.

Assays:
[1] = biological target: human SNAP_GLP1R (SNAP-tagged glucagon-like peptide-1 receptor) (human) (UniProt P43220); assay: fluorescent ligand labelling of cells, confocal microscopy; transiently transfected YFP-AD293-SNAP_GLP1R cells; increasing concentrations of compound applied for 60 min; control cells without GLP1R
[2] = biological target: human SNAP_GLP1R (SNAP-tagged glucagon-like peptide-1 receptor) (human) (UniProt P43220)

Chain of human SNAP_GLP1R (SNAP-tagged glucagon-like peptide-1 receptor) (human) (P43220 24-463): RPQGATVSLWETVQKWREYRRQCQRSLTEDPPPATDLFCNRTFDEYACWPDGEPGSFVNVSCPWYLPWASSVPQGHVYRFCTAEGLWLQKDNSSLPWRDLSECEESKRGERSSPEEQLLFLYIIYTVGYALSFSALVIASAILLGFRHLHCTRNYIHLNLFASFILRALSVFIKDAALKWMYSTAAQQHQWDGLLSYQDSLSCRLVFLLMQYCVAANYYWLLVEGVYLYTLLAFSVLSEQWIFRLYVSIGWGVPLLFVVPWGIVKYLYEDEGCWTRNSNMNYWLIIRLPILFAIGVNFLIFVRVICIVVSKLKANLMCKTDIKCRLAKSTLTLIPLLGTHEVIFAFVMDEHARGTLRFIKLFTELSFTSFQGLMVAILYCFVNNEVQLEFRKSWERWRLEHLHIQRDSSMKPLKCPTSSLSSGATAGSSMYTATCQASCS

Row | Substance | concentration of maximal labelling [1] [nM] | cAMP production (EC50) in HEK293-SNAP GLP1R cells, 30 min stimulation, with the positive allosteric modulator BETP (25 µM) [2] [nM]
1 | LUXendin555 (peptide) | 600 | 
2 | LUXendin645 (peptide) | 250 to 500 | 192
